Experimental data taken from US20260042850A1.

Molecular target: Insulin
Test: polyreactivity ELISA on insulin (and dsDNA)

Insulin, sequence (P01308 25-54, chain 1 of 2): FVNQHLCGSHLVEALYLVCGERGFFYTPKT
Insulin, sequence (P01308 90-110, chain 2 of 2): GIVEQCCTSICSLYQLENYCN

reactivity score	Substance
> 15	Briakinumab analogue (antibody)
> 15	Bococizumab analogue (antibody)
